The values that follow come from PMC11251181, “Crystal structure of MAGEA4 MHD-RAD18 R6BD reveals a flipped binding mode compared to AlphaFold2 prediction” (The EMBO Journal, 2024).

No end group written: not given here.

The target in this experiment is T1, MAGEA4 MAGE homology domain (MHD), residues D101-V317 (human, UniProt P43358 101-317).
T1 construct: MAGEA4, human, MAGE homology domain, residues D101-V317; His6 tag removed with TEV protease; also called MAGEA4 MHD; MAGEA4-MHD; source: E. coli BL21 (DE3), purified (Ni-NTA, TEV cleavage, Superdex-75 SEC); not shown: His6, N-terminal, cleaved
T1 sequence (looked up): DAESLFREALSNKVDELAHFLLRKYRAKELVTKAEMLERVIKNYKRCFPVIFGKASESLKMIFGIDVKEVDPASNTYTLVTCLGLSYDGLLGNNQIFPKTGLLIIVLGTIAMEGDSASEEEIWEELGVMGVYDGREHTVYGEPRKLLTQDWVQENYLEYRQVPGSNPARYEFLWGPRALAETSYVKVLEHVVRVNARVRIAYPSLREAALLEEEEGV
Kind of experiment: crystal structure; MAGEA4 MHD (10.3 mg/mL) incubated on ice with a 1:2 molar ratio of RAD18 R6BD in 20 mM Tris HCl pH 7.5, 200 mM NaCl, 1 mM TCEP; sitting drop vapor diffusion; 2.58 Å. The conditions noted are these: both partners purified.

B1: RAD18 RAD6-binding domain (R6BD) peptide, residues H339-G366 (peptide, UniProt Q9NS91 339-366, looked up)
peptide: HSKYRKKHKSEFQLLVDQARKGYKKIAG-NH2
notes: also called RAD18 R6BD; source: synthetic peptide (UNC Chapel Hill High-Throughput Peptide Synthesis and Array Facility)
In the case of B1, the binding result is “binds”.
